In PMC7177926, “Spliceosomal Protein Gene BmSPX Regulates Reproductive Organ Development in Bombyx mori”:

Biological target: MBP-BmPSI (P-element somatic inhibitor) (Bombyx mori, UniProt A8R081 1-703)
Assay: EMSA; RNA dissolved in protein purification buffer, 20 mM Tris, 20 mM NaCl; pH, temperature and EMSA binding details not given
Conditions: protein: recombinant; tags: N-terminal His6-MBP-TEV; label: biotin at 5' and 3' ends; single strand

MBP-BmPSI (P-element somatic inhibitor), sequence (A8R081 entry or part of it): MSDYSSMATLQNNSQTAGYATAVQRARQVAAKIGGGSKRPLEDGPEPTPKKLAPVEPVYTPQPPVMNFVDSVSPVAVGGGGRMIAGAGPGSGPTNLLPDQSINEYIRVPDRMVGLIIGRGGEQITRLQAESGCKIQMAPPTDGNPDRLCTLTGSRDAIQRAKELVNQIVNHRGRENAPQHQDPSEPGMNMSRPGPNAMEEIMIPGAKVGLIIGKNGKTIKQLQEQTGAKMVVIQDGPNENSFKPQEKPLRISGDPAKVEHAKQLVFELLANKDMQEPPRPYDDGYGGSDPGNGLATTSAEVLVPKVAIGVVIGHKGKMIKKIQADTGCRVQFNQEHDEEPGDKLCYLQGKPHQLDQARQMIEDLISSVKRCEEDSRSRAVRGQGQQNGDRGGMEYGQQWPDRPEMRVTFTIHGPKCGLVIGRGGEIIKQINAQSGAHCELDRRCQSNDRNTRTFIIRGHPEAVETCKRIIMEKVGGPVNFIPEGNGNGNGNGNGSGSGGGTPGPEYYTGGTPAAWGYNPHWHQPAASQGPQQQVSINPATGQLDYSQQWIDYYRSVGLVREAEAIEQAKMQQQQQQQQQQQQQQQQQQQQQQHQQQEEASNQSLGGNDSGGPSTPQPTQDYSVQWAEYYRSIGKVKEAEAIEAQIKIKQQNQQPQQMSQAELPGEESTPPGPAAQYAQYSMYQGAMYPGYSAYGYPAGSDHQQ

Does UUAAUAAUAUAAGUGGUGUA (ssRNA) [CE1 RNA probe] bind?
Result: binds
